This assay concerns the target T1, membrane bound single chain human GITRL trimer (human, UniProt Q9UNG2 29-177).
T1 construct: Expressed on the surface of transiently transfected HEK-293 cells (co-transfected with GFP); also called single chain hGITRL trimer
T1 sequence: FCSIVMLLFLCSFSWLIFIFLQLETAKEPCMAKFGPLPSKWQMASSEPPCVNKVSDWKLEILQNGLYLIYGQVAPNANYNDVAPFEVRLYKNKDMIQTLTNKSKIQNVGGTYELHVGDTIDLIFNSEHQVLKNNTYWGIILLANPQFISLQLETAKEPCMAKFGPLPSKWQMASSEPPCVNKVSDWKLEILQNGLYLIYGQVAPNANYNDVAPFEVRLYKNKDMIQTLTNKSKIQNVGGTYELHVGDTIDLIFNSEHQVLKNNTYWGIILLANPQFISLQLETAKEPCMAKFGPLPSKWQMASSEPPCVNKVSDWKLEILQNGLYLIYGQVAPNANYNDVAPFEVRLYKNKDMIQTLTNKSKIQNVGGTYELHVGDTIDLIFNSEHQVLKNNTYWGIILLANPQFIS
In words: flow cytometry, HEK-293 cells transfected with membrane bound single chain hGITRL trimer, PE anti-human Fc. As for the experimental part: FIG. 2. FACS analysis of a membrane bound single chain GITRL trimer and soluble GITR. HEK293 cells were transiently transfected with an expression vector encoding a membrane bound single chain human GITRL trimer and a second expression vector encoding green fluorescent protein (GFP). Transfected cells were incubated with soluble human GITR-Fc fusion protein and analyzed by flow cytometry. Positive binding is determined by observation of cells within the inset box of the FACS plot.
To test the ability of a single chain hGITRL trimer to bind human GITR, binding studies were conducted. Human HEK-293 cells were transiently co-transfected with expression vectors encoding (1) the membrane bound single chain hGITRL trimer construct described above and (2) green fluorescent protein (GFP) as a transfection marker. Twenty-four hours post-transfection, the cells were incubated with hGITR-Fc or a control fusion protein. The cells were stained with a PE-conjugated anti-human Fc secondary antibody and analyzed by flow cytometry.
(In flow cytometry, cells or beads pass a laser one at a time.)

B1: soluble human GITR-Fc fusion protein (Fc fusion, UniProt Q9Y5U5 26-162, looked up)
chain: QRPTGGPGCGPGRLLLGTGTDARCCRVHTTRCCRDYPGEECCSEWDCMCVQPEFHCGDPCCTTCRHHPCPPGQGVQSQGKFSFGFQCIDCASGTFSGGHEGHCKPWTDCTQFGFLTVFPGNKTHNAVCVPGSPPAEP
notes: also called hGITR-Fc; not shown: Fc region
For the molecule B1, the binding result is “binds”.

Source of the values: patent US20160256527A1 (ONCOMED PHARMACEUTICALS, published 2016).
